Assay: yeast display, Sf9 membrane polyspecificity reagent, FACS + sequencing; frameworks hold sequencing errors
How it was run: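 A synthetic nanobody library was expressed on Saccharomyces cerevisiae BJ5465 by galactose induction for 36–48 hours. The library was stained for 1 hour at 4 °C with 10% biotinylated, detergent-solubilized Sf9 membrane reagent and enriched with streptavidin microbeads before FACS. Low and high (top ~1%) gates were set on anti-HA fluorescence for expression and streptavidin fluorescence for reagent binding, and each polyreactivity label reflects the gate of origin.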
With “QVQLQESGGRLVQASGSIFHEPNMGWHRQAPGKERELVATISDGAITNYADSVKGRFTISRDNAKNTVYLQMNSLIPEDTAVYYCAATGGLNGALSRLEYWGQGTQVSVSS” the “polyreactivity (PSR sort gate)” value was “high polyreactivity”. For “QVQLQESGGRLVQSGGSLRPSCAASGSISDGVPMGWNSQAPGDERELVATTVLGATTNNADSVKGRFTISRGNAKNTVYLQMNSLKPEETAVYYCAAPLRYDKGFSYWGQGTQVTVSS”, the “polyreactivity (PSR sort gate)” value was “low polyreactivity”. In the case of “QVQLQESGSGLVQAGGSLRLSCAASGNISHYNDMGWYRQAPGKEREPVATINSGSITYYADSVKGRFTISRDNAKYTVYLQMNSLKPEDTAVYYCAVKQHGYFYLDYWGQGTQVTVSS”, the “polyreactivity (PSR sort gate)” value is reported as “high polyreactivity”. In the case of “QVQLQESGSGQVQAGGSLRLSCAASGAIFPAYLMGWYRQAPGKERELVAGISYGSITYCADSVKGRFNISRDNAKNTVYLQMNSLKPEDTAVYYCAVWRPGGDEYYYWGQGTQVTVSS”, the “polyreactivity (PSR sort gate)” value is reported as “low polyreactivity”. In the case of “QVQLQESRGGLVQAGGSLRLGFAASGNISDAGNKGWYRQAPGKEREFVAAIAAGSNTNYADSVKGRFTISRDNAKNTVYLQMNSLKPEDTAVFYCAVAYYARLQYEYWGQGTQVTVKS”, the “polyreactivity (PSR sort gate)” value is reported as “low polyreactivity”. With “QVQLQESSGGLVQAGGSLRMSCAASGTIFHFHIMGWYRQAPGKVREFVAAISYGTSTYYADSVKGRFTISRDNAKNTVYLLMNRQKPEDTEVYYCAVYEYLEVYCWYWGQGTQGTVSS” the “polyreactivity (PSR sort gate)” value was “low polyreactivity”. For “QVQLQESVGGLVQAGGSLRLSCAASGNIFPTDRMGWYRQAPGKELEFVATISHGGSTNYADSVKGRFTISRDNAKNTVYLQMNSLKPEDTAVFYCAVWSLGRWRHYYWGQGTQVTVSS”, the “polyreactivity (PSR sort gate)” value was “low polyreactivity”. With “QVQLQESVGGLVQAGGSLRLSCAASGYISSWYPMGWYRQAPGKEREFVATIAPVATTYYADSVKGRFTISRDYAKNSVYLQMNSLKPEDTAVYYCAAGPENNDFYSYWGQGTQVTVSS” the “polyreactivity (PSR sort gate)” value was “low polyreactivity”. With “QVQLQESVGGLVQAGRSLRLSCAASGYISHADEMGWYRQAPGKEHELVASISNGGSTNYADSVKGRFTISRDNANNTVYLQMNSLKSVDTAVYFCAAWTGQVDIHYYWGQGTQVTVSS” the “polyreactivity (PSR sort gate)” value was “low polyreactivity”. For “QVQLQESVGSLVQAGGSLRLSCAASGSISILQYMGWYRQAHGKELELVAGINWGATTYYADSVKGRLTTSRDYAKKTVYLQMNSLKPEDTAVYYCAVPTFYSYPVLYWGQGTQVTVSS”, the “polyreactivity (PSR sort gate)” value was “low polyreactivity”. With “QVQLQESVVCLVQALGSLRLSCAASGNISDYYDMGWYGHAPGKERKFVAGIDFGAITNYADSVKGRFTISRDNAKNTEYMQMSSLKPEDTAVYYCAAGVYDWYAYDYWGQGTQVTVSS” the “polyreactivity (PSR sort gate)” value was “high polyreactivity”. In the case of “QVQLQETRGGLDQAGDSLRLRCAASVSTLPVYTIARYRKAAVKEREFVAANTYTGGRTYYSDSVKGRFTISRDNAKNSVYLQMKSLKPDDTAVYYCAAEYGTYFVRYFAGASYRYGYWGQGTQVTVSS”, the “polyreactivity (PSR sort gate)” value is reported as “low polyreactivity”. For “QVQLRESGAGGRQPAPELRGERQYFYWSADGLVSQAPGKEREFVAGIDRGTITNYADSVRGRFTISRDNAKKTVYLQMNSLKPEDTAVYYCAVPAYGDPSSYYWGQGTHVTVSS”, the “polyreactivity (PSR sort gate)” value was “high polyreactivity”. In the case of “QVQLVASGGGLVQAGGSLRLSCAASGGTFFYNAKGWYRQAPGKERELVAAINGGTSTNYADSVKGRFTISRDNAKNTDYLQRNSLKPEDTAVYYCAAVYRRLGRSDWYDYWGQGTQVTVSS”, the “polyreactivity (PSR sort gate)” value is reported as “low polyreactivity”. In the case of “QVQLVASGGGLVQAGGSLRLSCAASGRIFDAYAMGWYRQAPGKERELVAAIDFSAGSTYYADSVKGRFTISRDNAQNTVYLQMNSLKPEDTAVYYCATRLGVLYDCWGQGTQVTVSS”, the “polyreactivity (PSR sort gate)” value is reported as “low polyreactivity”. In the case of “QVQLVASGGGLVQAGGSLRLSCAASGSNFAYNGMGWYRLAPGKERELVAAMSWNGGTTYYADSVKGRFTISRDKAKKNVYLQRNSLKPEDTAVYYCATDSYYFREYDYWGQGTQVTVSS”, the “polyreactivity (PSR sort gate)” value is reported as “low polyreactivity”. In the case of “QVQLVASGGGLVQAGGSLRLTCAASGSIFYAYAMGWSRQAPGKERELVASINSGGNTYYADSVKGRFTISRDNAKNTDYLQMNSLKAEATAVYYCAVDSKDNNDHWGQGTQVTVSS”, the “polyreactivity (PSR sort gate)” value is reported as “low polyreactivity”. For “QVQLVASGGGLVQSGGSLRLSCAASGTTFGYYAMGWYIQAPGKERELVAAITKSGGSTFYAESVKGRFTISRDNAKNTVYLQMNSLKPEDTAVYYCAARYKGQYYRQGRHDYWGQGTQVTVSS”, the “polyreactivity (PSR sort gate)” value was “high polyreactivity”.
